Test: yeast display, Sf9 membrane polyspecificity reagent, FACS + sequencing; frameworks hold sequencing errors
Method in brief: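 Polyreactivity labels are assigned by the sorting gate from which each nanobody was recovered. The gates were low and high (top ~1%), set on anti-HA fluorescence for expression and streptavidin fluorescence for reagent binding. Before sorting, galactose-induced (36–48 hours) yeast display cells were stained for 1 hour at 4 °C with 10% biotinylated, detergent-solubilized Sf9 membrane reagent.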

Sequence: QVQLVESGGGLGHAGGSLRLSCAASGRIYGRNAMGWNRKAQGKERELVAAINSGVSTYYADSVKGRFTISRDNAKNTFYLQMNSLKPEDTAVYYCAKAPQRRYYDFDYWGQGTQVTVSS
- polyreactivity (PSR sort gate): low polyreactivity

Sequence: QVQLVESGGGLGQAGGSLRLSCAASGFNFYGYAMGWYRQAPGKERELVAAISSGGGRTYYADSVKGLFTISRDNAKNTVYLQMNSLKPEDTAVYYCAAKVYFYTGGGGEDYWGQGTKVTVSS
- polyreactivity (PSR sort gate): low polyreactivity

Sequence: QVQLVESGGGLGQAGGSLRLSCAASGFTFGGNGMGWYRPAPGKERELVASISWGGGSTYYADSVKGRFRISRDKAKNTVYLQMNSLKREDTAVYDCNADRYYWSSRPTSWFNYWGQGTQVTVSS
- polyreactivity (PSR sort gate): high polyreactivity

Sequence: QVQLVESGGGLGQAGGSLRLSCAASGIIFWLYAMGWYRQAPGKDRELVAAITRSDGDTYYADSVKGRFTISRDNAKNTVYLQMNSLKPEDTAVYYCAARFTDYIHIWPFLLYNEVYYWGQGTQVTVSS
- polyreactivity (PSR sort gate): low polyreactivity

Sequence: QVQLVESGGGLGQAGGSLRLSCAASGRIFGGYTMGWYRQAPGKEREFVDTISRSSGSTYYADSVKGRFTISRDHAKNTVYLQMNSLKPEDTAVYYCAAVYLYATGYDYWGQCTQVTVSS
- polyreactivity (PSR sort gate): high polyreactivity

Sequence: QVQLVESGGGLGQAGGSLRLSCAASGRIFPKYVMGWYRQAPGKERELVAAIDKSADRTYYADSVKGRFTISRDNAKNTVYLQMNSLKPEDTAVYYCATAGYRLLDYWGQGTQVTVSS
- polyreactivity (PSR sort gate): high polyreactivity

Sequence: QVQLVESGGGLGQAGGSLRLSCAASGRILKYYDMGWYRQAPGKERELVAAISVSGTSTYYADSVKGRFTISRDNAKNTVYLQMNSLKPEDTAVYYCATATGRYSFDYWGQGAQVTVSS
- polyreactivity (PSR sort gate): low polyreactivity

Sequence: QVQLVESGGGLGQAGGSLRLSCAASGRTFGDYVMGWYRQAPGKEREFVAAITDSGDRTYYADSVKGRFTISRDNAKNTVYLQMNSLKPEDTAVYYCNDEIWDWYYWYAYWGQGTQVTVSS
- polyreactivity (PSR sort gate): high polyreactivity

Sequence: QVQLVESGGGLGQAGGSLRLSCAASGRTFTYNAMGWYRQAPGKERELVAAISYSGGRTYYADSVKGRFTISRDNAKNTVYLQMNSLKPEDTAVYYCARAYLGYYGRTYEYWGQGTQVTVSS
- polyreactivity (PSR sort gate): high polyreactivity

Sequence: QVQLVESGGGLGQAGGSLRLSCAASGSIFEGNGMGWYRPAPGKERELVAAITFRSGSTYYADSVKGRFTISRDNAKNTVYLQMNSLKPEDTAVYYCAADEYYQVSAYDYWGQGTQVTVSS
- polyreactivity (PSR sort gate): low polyreactivity

Sequence: QVQLVESGGGLGQAGGSLRLSCAASGSIFPYYAMGWYRPAPGTERELVASINQSDGTPYYADSVKGRFTISRDNAKNTVYLQMNSLKPEDTAVYYCAADTTLQAFIRYRPIGSYDSWGQGTQVTVSS
- polyreactivity (PSR sort gate): low polyreactivity

Sequence: QVQLVESGGGLGQAGGSLRLSCAASGSIFQGYTMRWYRQARGKARELVAAITRSVTSTYYADSVKGRFTISRDNAKNTVYLQMNCLKPEDTAVYYCAATAYYARYWYDYWGQGTQVTVSS
- polyreactivity (PSR sort gate): high polyreactivity

Sequence: QVQLVESGGGLGQAGGSLRLSCAASGSIFRGYAMGWYRQAPGKERELVAAISWSGGSTYYADSVKGRFTISRDNAKNTVYLQMNSLKPEDTAVYYCAADRDVFGYWYYYWGQGTQVTVSS
- polyreactivity (PSR sort gate): high polyreactivity

Sequence: QVQLVESGGGLGQAGGSLRLSCAASGSIFTQYAMGWFRPAPGKERELVATISKSSGSTYYADSVKGRFTNSRDNAKNTVYLQMNSLKPEDTAVYDCAARYTRAYPYYYWGQGTQVTVSS
- polyreactivity (PSR sort gate): high polyreactivity

Sequence: QVQLVESGGGLGQAGGSLRLSCAASGSIFYRNARGWYRQAPGKERELVASITSGGRTNYADSVKGRFTISRDNAKYSVYLQMNSLKPEDTAVFYCARGRASYTTSGPTPYTGYGYWRQGTQVTVSS
- polyreactivity (PSR sort gate): low polyreactivity

Sequence: QVQLVESGGGLGQAGGSLRLSCAASGSIFYRYAMGWYRKAPGKERELVAAITRRGARTYYADSVKGRFTISRDNAKNTVYLQLNSLKPEDTAVYYCAATYYYWTGWRYVRGDYWGQGTQVTVSS
- polyreactivity (PSR sort gate): high polyreactivity

Sequence: QVQLVESGGGLGQAGGSLRLSCAASGSIRDSNAMGWYRQAPGKERELVAAITSGGSTYYADSVKGRFTISRDNAKNTVYLQMNSLKPEDTAVYYCAAAYLGYGAVQPSYEGGYWGQGTQVTVSS
- polyreactivity (PSR sort gate): low polyreactivity

Sequence: QVQLVESGGGLGQAGGSLRLSCAASGSIYNDNVMGWYRQAPGKERELVAGISRSGTRTYYADSVKGRFTISRDNAKNTVYLQMNSLKPEDTAVYYCAAAYGQARRYNASQYGSWGQGTQVTVSS
- polyreactivity (PSR sort gate): high polyreactivity

Sequence: QVQLVESGGGLGQAGGSLRLSCAASGSTFIDNAMGWYRQAPGKERELVAAINSSGGNTYYADSVKWRFTISRDNAKNTVYLQMNSLKPEDTAVYYCNAEFYVLYFYDYEYWGQGTQVTLSS
- polyreactivity (PSR sort gate): low polyreactivity

Sequence: QVQLVESGGGLGQAGGSLRLSCAASGSTFYRFTRGWYRQAPGKERELVASIRWTGGRTNYADSVKGRFTISRDNAKNTVYLQMNSLKPEDTAVYYCAAYLKYPYGASYGSWGQGTQVTVSS
- polyreactivity (PSR sort gate): high polyreactivity

Sequence: QVQLVESGGGLGQAGGSLRLSFAASGRTFWYNAMGWYRQAPGKERELVAAISNGGSTNYADSVKGRFTISRDYATNTVYLQMNSVKPEDTAVDYCNAGLYRSPYPGRLGSRYDYWGQGTQVTVSS
- polyreactivity (PSR sort gate): high polyreactivity

Sequence: QVQLVESGGGLGQAGGSLRLSSAASGGTFGSNTMGWYRQAPGKERELVAAITSGVSTYYADSVKGRFTISRDNAKNTVYLQMNSLKPEDTAVYYCAADTTQLQGVEGDYWGQGTQVTVSS
- polyreactivity (PSR sort gate): low polyreactivity

Sequence: QVQLVESGGGLIQAGGSLRLRCAASGSTFPYYAMGWYRQAPGKEREFVAAIRFSGSSTYYADSVKGRFTISRDNAKNTVFLQMNRLIPEDTAVYYCATDYWLPSYSYDYWGQGTQVTVSS
- polyreactivity (PSR sort gate): low polyreactivity

Sequence: QVQLVESGGGLLHAGGSLRLSCAASGRTFDHYAMGWYRQAPGKERELVAAISSRGSSTYYADSVKGRFTISRDNAKNTVYLQMNSLKPEDTAVYYCAAKYIRDYTSNPRGYWGHGTQVTVSS
- polyreactivity (PSR sort gate): high polyreactivity

Sequence: QVQLVESGGGLLHAGGSLRLSFAASGRIFYYNGMGWYRQAPGKERELVAAISRGGSTYYADSVKGRFTISRDNAKNTVYLQMNRLLPEDTAVYDCAAYRGGLVNYWGQGSQVTVSS
- polyreactivity (PSR sort gate): high polyreactivity

Sequence: QVQLVESGGGLLQAGGSLRISCAASGRIFGRYAMGWYRQAPGKERELVASISRGGSTNYADSVKGRFTISRDNAKNTVYLQMNSLKPEDTAVYYCAADLNAYPQRAYDYWGQGTQVTVSS
- polyreactivity (PSR sort gate): low polyreactivity

Sequence: QVQLVESGGGLLQAGGSLRLSCAASGFIFKYYAMGWYRQAPGKEREFVAGINWSGTSTYYADSVKGRFTISRDNAKNTVYLQMNSLKPEDTAVYYCAATAYRGRTSRYYYWGQGTQVTVSS
- polyreactivity (PSR sort gate): high polyreactivity

Sequence: QVQLVESGGGLLQAGGSLRLSCAASGFTFATYAMGWYRQAPGKERELVAAISTSGGSTYYADSVKGRFTISRDNAKNTVYLQMNSLKPEDTAVYYCNAVSRSYRYAGVPGFHYDYWGQGTQVTVSS
- polyreactivity (PSR sort gate): high polyreactivity

Sequence: QVQLVESGGGLLQAGGSLRLSCAASGFTFGFYGRGWYRQAPGKERELVAAISYSGGTTYYADSVKARFTIARDNAKNTVYLQMNCLKPQDTAVNYCNTQSRETEDADYWGQGTQVTVSS
- polyreactivity (PSR sort gate): high polyreactivity

Sequence: QVQLVESGGGLLQAGGSLRLSCAASGFTFRSYDMGWYRQAPGKERELVAAISWRGGRTYYADSVKGRFTISRDNAKNTVDLQMNSLKPEDTAVYYCATDWYWGSYAPYTTRAHFDYWGQGTQVTVSS
- polyreactivity (PSR sort gate): high polyreactivity

Sequence: QVQLVESGGGLLQAGGSLRLSCAASGFTFTTYAMGWYRQAPGKERELVAAITRRGGSTYYADSVKGRFTISRDNAKNTVYFQMNSLKPEDTAVYYCAAGGGWGLDYWGQGTQVTVSW
- polyreactivity (PSR sort gate): high polyreactivity

Sequence: QVQLVESGGGLLQAGGSLRLSCAASGLTFVDYAMGWYRQAPGKERELVAAITTSGGSITYYSDSVKGRFTISRDNAKNTVYLQMNSLKPEDTAVYSCNADYGIYTDSFRGPDYESWGQGTQVTVSS
- polyreactivity (PSR sort gate): low polyreactivity

Sequence: QVQLVESGGGLLQAGGSLRLSCAASGMGWYRQAPGKERELVAAISWNGGSTYYADSVKGRFTISRDNAKNTVYLQMNSLKPEDTAVYYCAADYSTVASSLYLDSWGQGTQVTVSS
- polyreactivity (PSR sort gate): low polyreactivity

Sequence: QVQLVESGGGLLQAGGSLRLSCAASGRIFRGYAMGWYRQAPGKESELVAGITSGGSTKYADSVKGRFTISRDNAKNTVYLQMNSLKPEDTAVYYCAKGYLPYSYYARPYIRYYWGQGTQVTVSS
- polyreactivity (PSR sort gate): high polyreactivity

Sequence: QVQLVESGGGLLQAGGSLRLSCAASGRIGRYAMGCYRQAPGKERQLVAVITSGDSTYYADSVKGRFTISRDNAKNTVYLQMNSLKPEESPVESCAADSYRRWGNLFTGNEYDSWGQGTQVTVSS
- polyreactivity (PSR sort gate): low polyreactivity

Sequence: QVQLVESGGGLLQAGGSLRLSCAASGRILGPNAMGWYRQAPGTERELVAAINSGGSTNYADSVKGRFTISRDNAKNTVYLQMNSLKPEDTAVYYCATDKARVAGYGVEYDYWGQGTQVTVSS
- polyreactivity (PSR sort gate): low polyreactivity

Sequence: QVQLVESGGGLLQAGGSLRLSCAASGRNFKYYAMGWYRQAPGKEREFVAAISRSGGRTYYADSVKGRFTISRDNAKNTVYLQMNSLKPEDTAVYYCAAQPSSYVYYRQPFHYWGQGTQVTVSS
- polyreactivity (PSR sort gate): high polyreactivity

Sequence: QVQLVESGGGLLQAGGSLRLSCAASGRTFNYYAMGWYRQAPGKERELVAAISRSGGSTYYADSVKGRFTISRDNAKNTVFLQMNSLKPEDTAVYYCKSDRGSIYGWGQGTQVTVSS
- polyreactivity (PSR sort gate): high polyreactivity

Sequence: QVQLVESGGGLLQAGGSLRLSCAASGRTFPYYAMGWYRQAPGKERELVAAISSSGGSTYYADSVKGRFTISRDNAKNTVYLEMNSLKPEDTEVYYCAAVYQFIKWGDSYEYWGQGTQVTVSS
- polyreactivity (PSR sort gate): high polyreactivity

Sequence: QVQLVESGGGLLQAGGSLRLSCAASGRTFVWNAKGWYRQAPGKERELVAPITNDGSTNYADSVKGRFTISRDNAKNTVYLQMNSLKPEDTAVYYCAKRPRGSRIVPGGYDSWGQGTQVTVSS
- polyreactivity (PSR sort gate): low polyreactivity

Sequence: QVQLVESGGGLLQAGGSLRLSCAASGRTFVYYAMGWYRPAPGKERELVAAITSSGSRTYYADSVKGRFTISRDNAKNTVYLQMNSLKPEDTAVYYCAADYVAHGDYRVLYDYWGQGTQVTVSS
- polyreactivity (PSR sort gate): low polyreactivity

Sequence: QVQLVESGGGLLQAGGSLRLSCAASGSIFGVNAMGWYIQAPGKERELVASITGGDSTNYADSVKGRFTISRDNAKNTVYLQINSLKTEDTAVYYCNARVADAWASGYDYWGQGTQVTVSS
- polyreactivity (PSR sort gate): low polyreactivity

Sequence: QVQLVESGGGLLQAGGSLRLSCAASGSIFRRNAMGWYRQAPGKERELVAAITTRGSRTTYADSVKGRFTISRDNAKNTVYLQMNSLKPEDTAVYYCAARQHFSYSFHVAYDYWGQGTQVTVSS
- polyreactivity (PSR sort gate): high polyreactivity
